According to paper PMC9482650, “Quantitative fragmentomics allow affinity mapping of interactomes” (Nature Communications, 2022):

How the values were obtained:
Experiment in all cases: holdup assay
Set-up in all cases: key: below the threshold = too weak to quantify, mostly under pKd 3.1 to 4
CNKSR1, Q969H4 = biological target: T1, CNKSR1, Q969H4
T1 sequence (Q969H4 191-295, limits assumed, looked up): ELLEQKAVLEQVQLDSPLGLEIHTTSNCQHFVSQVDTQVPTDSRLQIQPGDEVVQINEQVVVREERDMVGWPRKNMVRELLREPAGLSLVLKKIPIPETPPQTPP

LNX2_4, Q8N448 = biological target: T2, LNX2_4, Q8N448
T2 sequence (Q8N448 595-690, limits assumed, looked up): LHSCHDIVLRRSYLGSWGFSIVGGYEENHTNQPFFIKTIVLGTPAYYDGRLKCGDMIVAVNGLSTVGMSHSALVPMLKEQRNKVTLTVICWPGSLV

MAST3, O60307 = biological target: MAST3, O60307
MPDZ_11, O75970 = biological target: T3, MPDZ_11, O75970
T3 sequence (O75970 1720-1817, limits assumed, looked up): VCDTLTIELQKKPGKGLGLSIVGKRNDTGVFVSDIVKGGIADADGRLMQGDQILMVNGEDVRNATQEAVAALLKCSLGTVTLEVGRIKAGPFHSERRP

MPDZ_13, O75970 = biological target: T4, MPDZ_13, O75970
T4 sequence (O75970 1982-2070, limits assumed, looked up): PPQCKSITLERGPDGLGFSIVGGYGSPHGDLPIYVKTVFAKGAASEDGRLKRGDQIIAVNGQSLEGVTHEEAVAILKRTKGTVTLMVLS

MPDZ_3, O75970 = biological target: T5, MPDZ_3, O75970
T5 sequence (O75970 372-473, limits assumed, looked up): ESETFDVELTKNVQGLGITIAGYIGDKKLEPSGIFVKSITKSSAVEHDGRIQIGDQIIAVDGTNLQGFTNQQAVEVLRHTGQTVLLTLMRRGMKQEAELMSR

MPP5, Q8N3R9 = biological target: T6, MPP5, Q8N3R9
T6 sequence (Q8N3R9 251-346, limits assumed, looked up): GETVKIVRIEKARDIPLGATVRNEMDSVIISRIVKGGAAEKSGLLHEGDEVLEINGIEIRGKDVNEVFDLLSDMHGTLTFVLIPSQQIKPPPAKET

NHERF4_3, Q86UT5 = biological target: NHERF4_3, Q86UT5
PARD3B_3, Q8TEW8 = biological target: PARD3B_3, Q8TEW8
PDZD2_4, O15018 = biological target: T7, PDZD2_4, O15018
T7 sequence (O15018 723-823, limits assumed, looked up): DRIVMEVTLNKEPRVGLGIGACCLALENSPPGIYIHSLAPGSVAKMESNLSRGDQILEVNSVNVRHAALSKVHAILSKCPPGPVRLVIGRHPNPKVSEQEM

PDZD2_6, O15018 = biological target: T8, PDZD2_6, O15018
T8 sequence (O15018 2745-2839, limits assumed, looked up): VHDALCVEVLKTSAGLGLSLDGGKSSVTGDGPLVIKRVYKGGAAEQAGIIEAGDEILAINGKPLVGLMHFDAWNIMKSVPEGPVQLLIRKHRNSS

PDZD4, Q76G19 = biological target: T9, PDZD4, Q76G19
T9 sequence (Q76G19 125-224, limits assumed, looked up): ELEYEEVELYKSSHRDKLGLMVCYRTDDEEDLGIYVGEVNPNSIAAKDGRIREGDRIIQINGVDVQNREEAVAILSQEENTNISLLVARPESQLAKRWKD

PDZRN3_2, Q9UPQ7 = biological target: T10, PDZRN3_2, Q9UPQ7
T10 sequence (Q9UPQ7 414-513, limits assumed, looked up): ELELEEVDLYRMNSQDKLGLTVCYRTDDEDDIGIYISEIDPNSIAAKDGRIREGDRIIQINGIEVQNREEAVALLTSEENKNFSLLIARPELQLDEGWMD

PTPN13_4, Q12923 = biological target: T11, PTPN13_4, Q12923
T11 sequence (Q12923 1783-1878, limits assumed, looked up): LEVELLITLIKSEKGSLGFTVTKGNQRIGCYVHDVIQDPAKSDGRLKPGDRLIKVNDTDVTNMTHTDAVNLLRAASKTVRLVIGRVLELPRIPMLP

PTPN4, P29074 = biological target: T12, PTPN4, P29074
T12 sequence (P29074 512-599, limits assumed, looked up): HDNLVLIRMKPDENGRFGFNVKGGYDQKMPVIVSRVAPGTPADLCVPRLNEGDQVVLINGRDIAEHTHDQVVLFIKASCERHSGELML

RGS3, P49796-9 = biological target: RGS3, P49796-9
SCRIB_4, Q14160 = biological target: SCRIB_4, Q14160
SHROOM2, Q13796 = biological target: T13, SHROOM2, Q13796
T13 sequence (Q13796 21-118, limits assumed, looked up): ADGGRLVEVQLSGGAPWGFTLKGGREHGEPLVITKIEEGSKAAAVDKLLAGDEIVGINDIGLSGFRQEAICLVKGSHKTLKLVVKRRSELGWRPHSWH

SHROOM4, Q9ULL8 = biological target: T14, SHROOM4, Q9ULL8
T14 sequence (Q9ULL8 5-102, limits assumed, looked up): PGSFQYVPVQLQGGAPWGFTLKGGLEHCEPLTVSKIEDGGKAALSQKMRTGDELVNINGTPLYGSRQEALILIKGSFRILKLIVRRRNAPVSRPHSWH

TJP1_1, Q07157 = biological target: TJP1_1, Q07157
USH1C_1, Q9Y6N9 = biological target: T15, USH1C_1, Q9Y6N9
T15 sequence (Q9Y6N9 82-179, limits assumed, looked up): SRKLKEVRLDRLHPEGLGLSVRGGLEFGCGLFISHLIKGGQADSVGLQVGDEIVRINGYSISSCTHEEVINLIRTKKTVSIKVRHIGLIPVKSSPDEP

[1] = modified: phospho on S at position -3 from the C-terminal residue
[2] = modified: acetyl on K at position -1 from the C-terminal residue
[3] = plain residues with an end cap or a label only (N-terminal biotin on a linker: (peg)3)

Chain of SCRIB_4, Q14160 (Q14160 1095-1204): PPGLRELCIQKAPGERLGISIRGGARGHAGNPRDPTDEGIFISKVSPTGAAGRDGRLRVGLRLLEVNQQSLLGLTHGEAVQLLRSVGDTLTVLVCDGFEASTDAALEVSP
Chain of RGS3, P49796-9 (P49796 other isoform, or with tags, fused parts or gaps): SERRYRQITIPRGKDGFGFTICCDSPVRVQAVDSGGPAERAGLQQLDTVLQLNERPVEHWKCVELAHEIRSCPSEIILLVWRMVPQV
Chain of MAST3, O60307 (O60307 945-1048): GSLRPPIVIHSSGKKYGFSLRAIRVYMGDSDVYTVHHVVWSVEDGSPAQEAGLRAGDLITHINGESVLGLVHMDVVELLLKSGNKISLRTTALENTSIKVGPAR
Chain of TJP1_1, Q07157 (Q07157 18-120): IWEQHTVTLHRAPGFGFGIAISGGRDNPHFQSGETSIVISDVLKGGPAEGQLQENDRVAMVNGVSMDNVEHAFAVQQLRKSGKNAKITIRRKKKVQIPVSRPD
Chain of NHERF4_3, Q86UT5 (Q86UT5 325-412): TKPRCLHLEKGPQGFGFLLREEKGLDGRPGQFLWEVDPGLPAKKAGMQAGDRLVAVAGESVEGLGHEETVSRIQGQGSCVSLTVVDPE
Chain of PARD3B_3, Q8TEW8 (Q8TEW8 490-594): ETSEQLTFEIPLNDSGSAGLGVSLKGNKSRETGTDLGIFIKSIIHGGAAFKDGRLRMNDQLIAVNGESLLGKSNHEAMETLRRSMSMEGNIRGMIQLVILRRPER

B1: RPS6KA1_-3P, Q15418 (peptide)
chain: RRVRKLPSTTL
pKd (CNKSR1, Q969H4; [1]): 3.49 | pKd (LNX2_4, Q8N448; [1]): below the threshold | pKd (MAST3, O60307; [1]): below the threshold | pKd (MPDZ_11, O75970; [1]): below the threshold | pKd (MPDZ_13, O75970; [1]): 3.72 | pKd (MPDZ_3, O75970; [1]): below the threshold | pKd (MPP5, Q8N3R9; [1]): below the threshold | pKd (NHERF4_3, Q86UT5; [1]): below the threshold | pKd (PARD3B_3, Q8TEW8; [1]): below the threshold | pKd (PDZD2_4, O15018; [1]): below the threshold | pKd (PDZD2_6, O15018; [1]): below the threshold | pKd (PDZD4, Q76G19; [1]): below the threshold | pKd (PDZRN3_2, Q9UPQ7; [1]): 3.72 | pKd (PTPN13_4, Q12923; [1]): below the threshold | pKd (PTPN4, P29074; [1]): 3.54 | pKd (RGS3, P49796-9; [1]): below the threshold | pKd (SCRIB_4, Q14160; [1]): below the threshold | pKd (SHROOM2, Q13796; [1]): 3.71 | pKd (SHROOM4, Q9ULL8; [1]): below the threshold | pKd (TJP1_1, Q07157; [1]): below the threshold | pKd (USH1C_1, Q9Y6N9; [1]): below the threshold

B2: PTEN_Ac, P60484 (peptide)
chain: DEDQHTQITKV
pKd (CNKSR1, Q969H4; [2]): 3.66 | pKd (LNX2_4, Q8N448; [2]): below the threshold | pKd (MAST3, O60307; [2]): 4.06 | pKd (MPDZ_11, O75970; [2]): 3.78 | pKd (MPDZ_13, O75970; [2]): 4.29 | pKd (MPDZ_3, O75970; [2]): below the threshold | pKd (MPP5, Q8N3R9; [2]): below the threshold | pKd (NHERF4_3, Q86UT5; [2]): below the threshold | pKd (PARD3B_3, Q8TEW8; [2]): below the threshold | pKd (PDZD2_4, O15018; [2]): below the threshold | pKd (PDZD2_6, O15018; [2]): below the threshold | pKd (PDZD4, Q76G19; [2]): below the threshold | pKd (PDZRN3_2, Q9UPQ7; [2]): below the threshold | pKd (PTPN13_4, Q12923; [2]): 4.96 | pKd (PTPN4, P29074; [2]): below the threshold | pKd (RGS3, P49796-9; [2]): below the threshold | pKd (SCRIB_4, Q14160; [2]): below the threshold | pKd (SHROOM2, Q13796; [2]): below the threshold | pKd (SHROOM4, Q9ULL8; [2]): below the threshold | pKd (TJP1_1, Q07157; [2]): 3.94 | pKd (USH1C_1, Q9Y6N9; [2]): below the threshold

B3: SARS-Cov2-3a, P0DTC3 (peptide)
chain: YDEPTTTTSVPL
pKd (CNKSR1, Q969H4; [3]): below the threshold | pKd (LNX2_4, Q8N448; [3]): below the threshold | pKd (MAST3, O60307; [3]): below the threshold | pKd (MPDZ_11, O75970; [3]): below the threshold | pKd (MPDZ_13, O75970; [3]): below the threshold | pKd (MPDZ_3, O75970; [3]): below the threshold | pKd (MPP5, Q8N3R9; [3]): below the threshold | pKd (NHERF4_3, Q86UT5; [3]): below the threshold | pKd (PARD3B_3, Q8TEW8; [3]): below the threshold | pKd (PDZD2_4, O15018; [3]): below the threshold | pKd (PDZD2_6, O15018; [3]): below the threshold | pKd (PDZD4, Q76G19; [3]): below the threshold | pKd (PDZRN3_2, Q9UPQ7; [3]): below the threshold | pKd (PTPN13_4, Q12923; [3]): below the threshold | pKd (PTPN4, P29074; [3]): below the threshold | pKd (RGS3, P49796-9; [3]): 4.19 | pKd (SCRIB_4, Q14160; [3]): below the threshold | pKd (SHROOM2, Q13796; [3]): 3.81 | pKd (SHROOM4, Q9ULL8; [3]): below the threshold | pKd (TJP1_1, Q07157; [3]): below the threshold | pKd (USH1C_1, Q9Y6N9; [3]): below the threshold
